Measured values from article doi:10.1101/2023.12.20.572361.

B1: dystroglycan (mDag1): 4X mut. (Pax7-Cre or AAV-CMV-Cre) (protein)
parent chain: MSVDNWLLHPLWGQTFLLLLSVAVAQAHWPSEPSEAVRDWKNQLEASMHSVLSDFQEAVPTVVGIPDGTAVVGRSFRVSIPTDLIASSGEIIKVSAAGKEALPSWLHWDPHSHILEGLPLDTDKGVHYISVSAARLGANGSHVPQTSSVFSIEVYPEDHNEPQSVRAASSDPGEVVPSACAADEPVTVLTVILDADLTKMTPKQRIDLLNRMQSFSEVELHNMKLVPVVNNRLFDMSAFMAGPGNAKKVVENGALLSWKLGCSLNQNSVPDIRGVETPAREGAMSAQLGYPVVGWHIANKKPTLPKRLRRQIHATPTPVTAIGPPTTAIQEPPSRIVPTPTSPAIAPPTETMAPPVRDPVPGKPTVTIRTRGAIIQTPTLGPIQPTRVSEAGTTVPGQIRPTLTIPGYVEPTAVITPPTTTTKKPRVSTPKPATPSTDSSTTTTRRPTKKPRTPRPVPRVTTKAPITRLETASPPTRIRTTTSGVPRGGEPNQRPELKNHIDRVDAWVGTYFEVKIPSDTFYDNEDTTTDKLKLTLKLREQQLVGEKSWVQFNSNSQLMYGLPDSSHVGKHEYFMHATDKGGLSAVDAFEIHVHKRPQGDKAPARFKARLAGDPAPVVNDIHKKIALVKKLAFAFGDRNCSSITLQNITRGSIVVEWTNNTLPLEPCPKEQIIGLSRRIADENGKPRPAFSNALEPDFKALSIAVTGSGSCRHLQFIPVAPPSPGSSAAPATEVPDRDPEKSSEDDVYLHTVIPAVVVAAILLIAGIIAMICYRKKRKGKLTLEDQATFIKKGVPIIFADELDDSKPPPSSSMPLILQEEKAPLPPPEYPNQSMPETTPLNQDTVGEYTPLRDEDPNAPPYQPPPPFTAPMEGKGSRPKNMTPYRSPPPYVPP
B2: dystroglycan (mDag1): Pax7-Cre 4X mutant (protein)
parent chain: B1 parent chain

Columns and labels:
[1] = forelimb grip strength test; conditions: glycan lost; control: WT mice
[2] = EDL eccentric contraction protocol; conditions: glycan lost; control: WT mice
[3] = EDL isometric tetanic and specific force in vitro; conditions: glycan lost; control: WT mice
[4] = glycan lost; control: WT mice

Protein | other: grip strength [1] | other: susceptibility to contraction-induced injury [2] | other: muscle contractile force [3] | other: neuromuscular junction integrity [4]
B1 | decreases | increases | decreases | 
B2 |  |  |  | decreases
